In article PMC7801617, “Cancer associated talin point mutations disorganise cell adhesion and migration” (Scientific Reports, 2021):
Each block holds one binder with its values, some of them ahead of it. No end group written: not given here.

Experiments:
[1] = biological target: the molecule itself; assay: SEC-MALS; 100 μM protein, room temperature, Superdex 75 column; Viscotek SEC–MALS 9 and RI detector; dimer or monomer
[2] = biological target: T1, talin-1 R7–R8 fragment (residues 1355–1652) with mutation R1368W (mouse, UniProt P26039 1355-1652, R1368W); assay: fluorescence polarisation; R7–R8 protein serially diluted from 60 µM with KANK1 (30–68) peptide at 1 µM, and from 75 µM with RIAM (4–30) peptide at 1 µM; 20 °C; CLARIOstar plate reader; one-site total binding equation; conditions: both partners purified
T1 construct: talin-1, mouse, R7–R8 domains, residues 1355–1652, with R1368W; The mutation is a somatic mutation of human cancers (COSMIC; also in the 1000 Genomes database), put into the mouse talin-1 fragment by site-directed mutagenesis; also called R7–R8 R1368W; source: E. coli BL21 (DE3), purified (HisTrap HP, HiTrap Q HP anion exchange)

[3] = biological target: T2, talin-1 R7–R8 fragment, wildtype (residues 1355–1652) (mouse, UniProt P26039 1355-1652); assay: as above; conditions: both partners purified
T2 construct: talin-1, mouse, R7–R8 domains, residues 1355–1652, made from full-length mouse talin-1 as template; also called R7–R8 WT; Wildtype R7–R8; source: E. coli BL21 (DE3), purified (HisTrap HP, HiTrap Q HP anion exchange)

[4] = biological target: T3, talin-1 R7–R8 fragment (residues 1355–1652) with mutation Y1389C (mouse, UniProt P26039 1355-1652, Y1389C); assay: as above; conditions: both partners purified
T3 construct: talin-1, mouse, R7–R8 domains, residues 1355–1652, with Y1389C; The mutation is a somatic mutation of human cancers (COSMIC), put into the mouse talin-1 fragment by site-directed mutagenesis; also called R7–R8 Y1389C; source: E. coli BL21 (DE3), purified (HisTrap HP, HiTrap Q HP anion exchange)

[5] = biological target: T1, talin-1 R7–R8 fragment (residues …); assay: SEC; Vd1 and talin R7–R8 incubated at a 2:1 ratio at a concentration of 100 µM, analysed at room temperature; elution fractions on SDS-PAGE; conditions: both partners purified
[6] = biological target: T2, talin-1 R7–R8 fragment, wildtype …; assay: as above; conditions: both partners purified
[7] = biological target: T3, talin-1 R7–R8 fragment (residues …); assay: as above; conditions: both partners purified

T2 sequence (P26039 1355-1652): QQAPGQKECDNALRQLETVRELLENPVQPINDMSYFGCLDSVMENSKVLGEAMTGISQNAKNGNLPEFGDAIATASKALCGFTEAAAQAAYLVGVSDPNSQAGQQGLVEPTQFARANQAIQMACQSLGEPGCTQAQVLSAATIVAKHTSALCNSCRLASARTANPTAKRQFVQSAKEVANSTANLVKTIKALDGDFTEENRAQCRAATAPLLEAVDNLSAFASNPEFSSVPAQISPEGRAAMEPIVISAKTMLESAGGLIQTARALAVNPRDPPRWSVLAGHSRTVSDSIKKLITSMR
T1 sequence (P26039 1355-1652 R1368W): as the sequence (P26039 1355-1652) above, with R14W counted along it
T3 sequence (P26039 1355-1652 Y1389C): as the sequence (P26039 1355-1652) above, with Y35C counted along it

B1: talin-1 R13–DD fragment, wildtype (residues 2300–2541) (domain or fragment, mouse, UniProt P26039 2300-2541, looked up)
chain: DPTVIAENELLGAAAAIEAAAKKLEQLKPRAKPKEADESLNFEEQILEAAKSIAAATSALVKAASAAQRELVAQGKVGAIPANALDDGQWSQGLISAARMVAAATNNLCEAANAAVQGHASQEKLISSAKQVAASTAQLLVACKVKADQDSEAMKRLQAAGNAVKRASDNLVKAAQKAAAFEDQENETVVVKEKMVGGIAQIIAAQEEMLRKERELEEARKKLAQIRQQQYKFLPSELRDEH
notes: talin-1, mouse, R13 and dimerisation domain (DD), residues 2300–2541; Constitutive dimer by SEC–MALS; also called R13–DD WT; Talin R13–DD wildtype; source: E. coli BL21 (DE3), purified (HisTrap HP, HiTrap Q HP anion exchange)
stoichiometry N [1]: 2

binding result [2]: binds
binding result [3]: binds
binding result [4]: binds
B2: RIAM (4–30) peptide (peptide)
peptide: SEDIDQMFSTLLGEMDLLTQSLGVDTC
modifications: also: BODIPY or Fluorescein dye coupled via C-terminal Cys
notes: RIAM, mouse, printed as residues 4–30; added C-terminal cysteine for coupling of the dye; also called RIAM peptide; LD-motif of RIAM; source: synthetic peptide (GLBiochem, China)

stoichiometry N [5]: 1
stoichiometry N [6]: 1
stoichiometry N [7]: 2
B3: vinculin Vd1 domain (residues 1–258) (domain or fragment, UniProt P12003 1-258, looked up)
chain: MPVFHTRTIESILEPVAQQISHLVIMHEEGEVDGKAIPDLTAPVSAVQAAVSNLVRVGKETVQTTEDQILKRDMPPAFIKVENACTKLVRAAQMLQADPYSVPARDYLIDGSRGILSGTSDLLLTFDEAEVRKIIRVCKGILEYLTVAEVVETMEDLVTYTKNLGPGMTKMAKMIDERQQELTHQEHRVMLVNSMNTVKELLPVLISAMKIFVTTKNTKSQGIEEALKNRNFTVEKMSAEINEIIRVLQLTSWDEDAW
notes: vinculin, Vd1 domain, residues 1–258
